Positions count from the first letter of the chain named.
T1: human His6-GITR (human, UniProt Q9Y5U5 26-162)
T1 construct: His6-tagged recombinant protein; also called hGITR-His; human GITR-His
T1 sequence: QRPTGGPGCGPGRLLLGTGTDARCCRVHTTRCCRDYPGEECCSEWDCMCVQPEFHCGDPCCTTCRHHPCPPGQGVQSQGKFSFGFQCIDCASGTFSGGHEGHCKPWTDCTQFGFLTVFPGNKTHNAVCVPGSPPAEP

T2: cynomolgus monkey His6-GITR (cynomolgus monkey)
T2 construct: His6-tagged recombinant protein; also called cGITR-His; cyno GITR-His
T2 chain: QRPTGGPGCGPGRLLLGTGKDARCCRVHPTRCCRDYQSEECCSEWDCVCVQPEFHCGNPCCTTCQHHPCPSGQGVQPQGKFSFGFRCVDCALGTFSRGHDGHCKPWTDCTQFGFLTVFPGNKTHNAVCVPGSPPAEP

T3: mouse His6-GITR (mouse, UniProt O35714 20-153)
T3 construct: His6-tagged recombinant protein; also called mGITR-His; mouse GITR-His
T3 sequence: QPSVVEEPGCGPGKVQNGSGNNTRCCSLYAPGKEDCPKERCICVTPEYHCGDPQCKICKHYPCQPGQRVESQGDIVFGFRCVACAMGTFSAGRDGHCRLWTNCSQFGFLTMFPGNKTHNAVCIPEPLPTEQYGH

B1: GITR-Mab-2 scFv (scFv, V domains shown)
VH: QVQLVQSGAEVKKPGSSVKVSCKASGYRFTGYHLHWVRQAPGQGLEWMGGIIPIFGTANYAQKFQGRVTITADKSTSTAYMELSSLRSEDTAVYYCAYGVPPDPWGQGTLVTVSS
VL: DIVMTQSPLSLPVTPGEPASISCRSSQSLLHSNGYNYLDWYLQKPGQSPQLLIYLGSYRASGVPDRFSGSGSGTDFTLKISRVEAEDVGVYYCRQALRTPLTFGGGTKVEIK
notes: scFv in periplasmic extract, V5 tag
B2: GITR-Mab-7 scFv (scFv, V domains shown)
VH: QVQLVQSGAEVKKPGASVKVSCKASGGTSSTYAVTWVRQAPGQGLEWMGVINPNDGSTTYAQNFQGRVTMTRDTSTSTVYMELSSLRSEDTAVYYCARWTPLFGVVIPDYYYYGMDVWGQGTLVTVSS
VL: DIQMTQSPSSLSASVGDRVTITCQASQDISNYLNWYQQKPGKAPKLLIYAASSLQSGVPSRFSGSGSGTDFTLTISSLQPEDFATYYCQQSYSTPPTFGQGTRLEIK
notes: as for B1
B3: GITR-Mab-9 scFv (scFv, V domains shown)
VH: QVQLVQSGAEVKKPGASVKVSCKASGHTFTSQYMHWVRQAPGQGLEWVGVINPNDGSTSYAQKFQGRVTMTRDTSTSTVYMELSSLRSEDTAVYYCARDGAYYYDSSGYYRSSNFDYWGQGTLVTVSS
VL: B2 VL with S30G, A50G, S53N, Q55E, S56T, S91G, T94F, P96L, R103K, L104V
notes: as for B1
B4: GITR-Mab-14 scFv (scFv, V domains shown)
VH: EVQLLESGGGLVKPGGSLRLSCAASGFRFSVYWMSWVRQAPGKGLEWVSGISGSGGTTYYADSVKGRFTISRDDSKNTLYLQMNSLKTEDTAVYYCARVRRDGYNYNFDYWGQGTLVTVSS
VL: B2 VL with Y49F, A50D, Q55E, S56A, S91A, Y92N, T94F, R103E, L104V
notes: as for B1
B5: GITR-Mab-16 scFv (scFv, V domains shown)
VH: QVQLVQSGAEVKKPGASVKVSCKASGGTLSSYAISWVRQAPGQGLEWMGWIDPNSGGTNYAQKFQGRVTMTRDTSTSTVYMELSSLRSEDTAVYYCARQGLLWFGESGSIYYYYGMDVWGQGTTVTVSS
VL: B2 VL with Q24R, Q27R, D28S, A50G, P95L, P96V, R103K, L104V
notes: as for B1
B6: GITR-Mab-12 scFv (scFv, V domains shown)
VH: QVQLVQSGAEVKKPGASVKVSCKASGYTFTSYAINWVRQAPGQGLEWMGILSPSGGGTSYAPKFQGRVTMTRDTSTSTVYMELSSLRSEDTAVYYCARGPWYFDLWGRGTLVTVSS
VL: B2 VL with Q24R, D28G, Y32S, N34A, P96F, Q100P, R103K, L104V, E105D
notes: as for B1
B7: GITR-Mab-19 scFv (scFv, V domains shown)
VH: QVQLVQSGAEVKKPGASVKVSCKASGYTFTSYDINWVRQAPGQGLEWVGIINPSGGSTSYAQKFQGRVTMTRDTSTSTVYMELSSLRSEDTAVYYCARASSGGYYYYYGMDVWGQGTTVTVSS
VL: B2 VL with Q24R, S30V, Y32W, N34A, S91Y, T94Y, P96L
notes: as for B1
B8: GITR-Mab-18 scFv (scFv, V domains shown)
VH: EVQLLESGGGLVKPGGSLRLSCAASGFTFSSYWMSWVRQAPGKGLEWVSGISWNGGTVGYADSVKGRFTISRDDSKNTLYLQMNSLKTEDTAVYYCAKLGIAVKSHWYFDLWGRGTLVTVSS
VL: DIQMTQSPSSLSASVGDRVTITCRASESISTWLAWYQQKPGKAPKLLIYAASSLQSGVPSRFSGSGSGTDFTLTISSLQPEDFATYYCQQSYTLPLTFGGGTKLEIK
notes: as for B1
B9: GITR-Mab-15 scFv (scFv, V domains shown)
VH: QVQLVQSGAEVKKPGSSVKVSCKASGFTFTTSAVQWVRQAPGQGLEWMGGIIPIFGTANYAQKFQGRVTITADESTSTAYMELSSLRSEDTAVYYCAKGSGYEFPGGSEYFQHWGQGTLVTVSS
VL: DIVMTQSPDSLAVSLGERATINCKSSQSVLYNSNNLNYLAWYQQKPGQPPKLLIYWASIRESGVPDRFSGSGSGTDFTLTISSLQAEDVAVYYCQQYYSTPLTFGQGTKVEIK
notes: as for B1
B10: GITR-Mab-13 scFv (scFv, V domains shown)
VH: QVQLVQSGAEVKKPGSSVKVSCKASGGTFSSYAISWVRQAPGQGLEWMGGIVPMLGSPHYAQKFQGRVTITADESTSTAYMELSSLRSEDTAVYYCARGSWLVADFQHWGQGTLVTVSS
VL: not shown
notes: as for B1
B11: GITR-Mab-6 scFv (scFv, V domains shown)
VH: QVQLVQSGAEVKKPGASVKVSCKASGYAFTAYYLHWVRQAPGQGLEWMGWMNPNSGNTGYAQKFQGRVTMTRDTSTSTVYMELSSLRSEDTAVYYCAREGWGYYDGGFDPWGQGTLVTVSS
VL: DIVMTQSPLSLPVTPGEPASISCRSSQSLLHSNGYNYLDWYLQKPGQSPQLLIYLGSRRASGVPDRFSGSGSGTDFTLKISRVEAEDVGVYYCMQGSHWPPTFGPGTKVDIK
notes: as for B1
B12: GITR-Mab-8 scFv (scFv, V domains shown)
VH: QVQLVQSGAEVKKPGASVKVSCKASGGTFSSYVISWVRQAPGQGLEWMGWMNPGSGNTGYAQKFQGRVTMTRDTSTSTVYMELSSLRSEDTAVYYCITDSEDDYWGQGTLVTVSS
VL: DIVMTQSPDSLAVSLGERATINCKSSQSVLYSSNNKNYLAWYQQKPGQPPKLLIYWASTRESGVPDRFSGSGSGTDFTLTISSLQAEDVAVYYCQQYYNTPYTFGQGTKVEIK
notes: as for B1
B13: GITR-Mab-11 scFv (scFv, V domains shown)
VH: QVQLVQSGAEVKKPGASVKVSCKASGGTFSNYGISWVRQAPGQGLEWMGIINPTDGSTTYAQKFQGRVTMTRDTSTSTVYMELSSLRSEDTAVYYCARWWGSGWSWYFDLWGRGTLVTVSS
VL: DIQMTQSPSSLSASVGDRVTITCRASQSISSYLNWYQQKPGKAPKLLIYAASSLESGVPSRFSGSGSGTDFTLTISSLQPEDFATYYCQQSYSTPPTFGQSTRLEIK
notes: as for B1
B14: GITR-Mab-10 scFv (scFv, V domains shown)
VH: QVQLVQSGAEVKKPGASVKVSCKASGYTFTSNYMHWVRQAPGQGLEWMGWMNPNSGNTAYAQKFQGRVTMTRDTSTSTVYMELSSLRSEDTAVYYCARGRGGQLLFDYWGQGTLVTVSS
VL: DIQMTQSPSSLSASVGDRVTITCRASQGISSWLAWYQQKPGKAPKLLIYAASTLQSGVPSRFSGSGSGTDFTLTISSLQPEDFATYYCQQYNSYSTFGQGTKVEIK
notes: as for B1

Legend:
[1] = biological target: T1, human His6-GITR; assay: CARTERRA LSA, scFv periplasmic extract
[2] = biological target: T2, cynomolgus monkey His6-GITR; assay: ELISA, scFv periplasmic extract on coated His6-GITR
Experimental: (§1) The SuperHuman-2.0 scFv Antibody Library (available from Distributed Bio, South San Francisco, Calif.) was used to perform selection with human, cynomolgus or mouse GITR proteins. Selected phage clones from overnight growth were inoculated into wells in 96 well deep well plates containing 1 mL of medium. scFv expression was induced by addition of IPTG (Teknova) to a final concentration of 1 mM. Plates were grown overnight after induction. To prepare periplasmic extracts (PPE), the plates containing the phage clones were centrifuged at 2500 rpm for 10 min, the supernatant discarded and then pellets treated with 75 μL of cold periplasmic extract buffer with appropriate concentration of protease inhibitors (Complete Mini, EDTA-free -Roche Applied Biosciences—Cat No 1836170). After shaking at room temperature for 10 min, 225 μL of cold ddH2O with added protease inhibitor (1 tablet/50 mL) was added per well and mixed by pipetting up and down. PPE extraction was completed by incubation at room temperature for an additional 1 hr. The plates were then centrifuged at 4000 rpm for 20 minutes and 200 μL of PPE supernatant was collected from each well and transferred to a new plate which was then blocked with equal volume of 4% milk (2% final) to prepare blocked PPE extracts. In the meantime, Maxisorp plates (Nunc 442404) coated with relevant antigen (human, mouse or cynomolgus monkey His6-GITR) at 50 μl/well of 1 μg/mL antigen or 2% BSA in PBS as control were prepared for ELISA analyses. Next, 50 μL of each blocked PPE extract was transferred to the pre-blocked ELISA plates coated with the relevant antigens. After incubation and washing 3× with PBS, 50 μL of anti-V5 tag antibody (tag included in the phage display constructs, Invitrogen Cat No R960-25) at 1:5000 dilution in 2% milk was added and the plates were incubated for 1 hr. […] After further washing 3× with PBST, 50 μl/well of TMB substrate was added and the plates were developed until positive controls were visible. The reaction was stopped with 50 μl/well of 2N H2SO4. Plates were read at 450 nm to determine ELISA signal from bound PPE derived scFv.

[3] = biological target: T3, mouse His6-GITR; assay: as above
Experimental: as §1

[4] = biological target: T1, human His6-GITR; assay: as above
Experimental: as §1

Binder | Kd [1] [nM] | cGITR-His/BKG [2] [fold over background] | mGITR-His/BKG [3] [fold over background] | hGITR-His/BKG [4] [fold over background]
B1 | 16.3 | 25.2 | 1.1 | 20.1
B2 | 11.5 | 9 | 1 | 16.4
B3 | 3.3 | 11.6 | 1.1 | 12.8
B4 | 30.3 | 11.5 | 0.9 | 34
B5 | 0.8 | 21.6 | 0.8 | 24.1
B6 | 7.5 | 16.9 | 1 | 37.8
B7 | 10.8 | 24.6 | 1.3 | 10
B8 | 1 | 17.7 | 1 | 17.9
B9 | 52.1 | 12.3 | 1.2 | 11.4
B10 | 2.6 | 9.4 | 1.1 | 25.4
B11 | 0.1 | 7.5 | 1 | 35.8
B12 | 49.6 | 16.1 | 1.4 | 9.6
B13 | 1.4 | 15.6 | 1.1 | 21.8
B14 | 5.3 | 29.4 | 1.1 | 34.2
